From the PETadex activity labels come the findings set out here.

Sequences and labels used below:
B1: unnamed (protein)
chain: MIIRYISRLALLAGAMTLSASLWAAPVPCRDCSTGYQRGDVPSTAELESRRGPYSVRTIRVSRLVNGFGGGTIYYSTESGGGQGIIAVVPGYLSLETTIQWWGPRLASWGFTVITMDTNTIYDQPTSRASQLSAALNYVINKGNDSRSPLYGLVDPNRTGVIGWSMGGGGALELSTRRNIQATIAQAPWHVGAGTFAQISTPTMILACQLDAVAPTAIHAKAFYNVIPRTTSKAYFEVRAGSHFCANTGYPNTDIIGRNGIAWMKRFIDNDTRYNQFLCGPNFESDFRISKYRDTCNY
B2: unnamed (protein)
chain: MMNSVMDRFTIAASAVLFSASAWSFTPTPDPDPTPPPQPCQVDCDFTRGPNPTSSYLEANSGPYSVGTVRVSSSVNGFGGGTIHYPTNTTGKMGAIAVVPGFTAGESSIAWWGPRLASHGFVVITIATNSGFDQPASRATQLSNALDYVISQSNSSSSAISGMVDASRLGAMGWSMGGGGALRLASGARLSAAIPLAPWHSGSNPFDQIETPTMIIACESDSTAPVGSHASPFYNRIPASTDKAYLEINNGDHRCANGGGSNGGLLGKYGVSWMKRFIDRDTRYQQFLCGPNHEANTAISEYRDTCAY
B3: unnamed (protein)
chain: MDKTRLFSTLSMVTSALLFSISVSAGKPSKGGDEPAPEPAACISDTDITSAALSSTGSSGPFTVSTKDVSRWSASGFGGGTIHYPTGAGDCGPIGGIAVVPGYVSYEASIKWWGPRLASWGFVVITINTNSIYDQPDSRATQLSAALDHIINDSTVGSMVDSSRLGAIGWSMGGGGALKLATDRSEVKAIIPQAPWYSGRYGRMKTPAFMIGCENDFVAPTSNHVDVFYANASGPKMKIEVNNGDHSCANSGYNETLLGKPGIAWMQRYIHGDTRFNQFLCGNENYGSSNSVSAYDFESCP
B4: unnamed (protein)
chain: MQVRLSSLCRTALVALGLAWAAATAHAQTIDDASDISLAIGPAPTSSALNALNGPFAVSTSIVVLPVGFGGGTIYYPTQAGKYGVIALCPGFTATSTSLAWLARRLASWGFVVVNMNTVTVFDFPSSRATEMRVALRYATNWSSATVRARIDPNRQAVAGHSMGGGGALIAAVRNPELKAAYALMPWSPTYSPTSMKVPTMLVAADADTIAPAALMVRPYYKLIPATVPKAYAELRWGNHFSPILVNTPIGRYGAAWMKRFVDGDTRYQDFLCGAAHQYYANALVFASYLKNCPY
B5: unnamed (protein)
chain: MKTTALRIKGLSIAAAIALSTLAPAAFSQTSPPTSASLNATSGPLSVSTASVFLPVGFGGGTIYYPTVAGKYGVIAISPGFTATESSIAWLGRRIATHGFVVITLNTNTTLDQPDSRATQLMAALRYVLNSSGSAVRARIDPTRLAVAGHSMGGGGSLIAARDNPTLKASYPMTPWNISSNFSTVRVPTMIIGADGDTIAPVASHARPFYASLPSSTLKAYGELNGATHFAPNTTNTPIGRYAVTWMKRFVDGDTRYSPFLCGAQHTSYATSRIFDRYNQNCPY
B6: unnamed (protein)
chain: MRTSRTRPLRRLAAALVLALAVVLAACDIRGPDPTEQSLTASSGPFAVGTLAVPSSAGFGGGTIYYPTNTEGPFAVISVTPGFTGTQSSIAGWGPRLASHGFVAITINTTNTFENPDTRSTEQRQALTYVVNQSNTSSSPIYGKVDGNRRGVAGHSMGGGGTLISAQADPTIRAAVPLAPWNSSTNFSNVTVPTLILACQNDSIAPVASHASPMYNSIPATTDKSYLSIAGGDHFCANSPTGGSGNVGKYGVAFFKRFLDGDTRYDPWVCGASKPAAGSAINEVRSTCPF
B7: unnamed (protein)
chain: MNKTILEKIAVGTGALLFSVSAFSFTPSPTPDPTPDPEPCQGECDFTRGPNPTSSYMEANAGPYTVRTSSVSGSVSGFGGGTVHYPTNTSGEMGAIAIVPGFLAGESSISWWGPRLASHGFVVITIATNSVFDQPGSRSTQLGRALDYLVSQSNSSNSPISGMVDASRLGAMGWSMGGGGVLRLASGSRLVAAIPLAPWNTGSNDFDQIQTPTMIMACENDSTARVGTHASPFYNSIPGSTDKAYLEINGGSHSCANGGGSNGGLLGKYGVSWMKLFMDEDTRYSQFLCGPNHAANGAISEYRDTCNY
B8: unnamed (protein)
chain: MKTNRRRRLGRLALAAAALLLSVAAQAQNGSAPPGPDPDPDPNPPESDNPYPRGPDPTAATLEASSGPFAVSSFRPSSTPGFGGGTIYYPTNTNEGPFAAIAVAPGFVGTESTIDWLGPRLASHGFVVITIDTNSLFDFPDSRASQLMAALDIVIAESNGSSPISGLVDPDRTGLMGHSMGGGGSLIAARDNPTIDAVIPLAPWNSSTNFSAIDVPTLIVACENDTVAPVSQHASPMYESIPSSVDKAFLEINGGDHFCANSGNANQDILGKYIVSWMKRFLDQDTRYDPFLCGPNHEADPDISEYRDTCPY
B9: unnamed (protein)
chain: MKLERSVAQATSVARGARRHEKPSSLTSVALAGVSLALFSTFAHADVLLQENFDGNLGQFSSSGSVTVTTSGARMAGSYGGTDGAITSPAISTVGFTGLSLSYTRTTTGLDSGEGGFLEYSTNGTTFTSLGSTQSASGPVTVALPAAVENQAALRLRWRVNASLSSEYYTVDTILLEGTGGTSCEPNCPPTGNPYQRGPAPTVSSLQATTGPFQTASSAVSSSAADGYGGGTIYYPTNTTEGPFAAIAVVPGYLSPQSSIQQWGPRLASWGFVVITIATNSTSDQPSSRATQLVAALDQVVSYSNSTSHAIRGKVDPARLGVAGWSMGGGGTLIALDRNATKLKAGMAFAPWNSSTNFSGVNQPALIFGCESDGTAPVSSHSLPFYNSMPSTNDKAFAEVNNGGHSCANDPRNNSGMIGRYGVSWMKRFLDNDTRFSDFLCGAPHDTAVSGSTFSRYLETCPY
B10: unnamed (protein)
chain: MTSTTVRFAKRLIGAAALLATASVFAQSLPSDAALQATSGPLKIAQANIATPNGYGSGTVYYPTTGTNMGLVVIAPGFTEGPSFNAFWGEKLASWGFVAVNIGTKTTLDLPGPRATQMWAALQQVAALSKTSGSPFAGKVDANRLAAMGHSMGGGGTLLISQDHPTLKAAIPMAPWNLTQKNFPKITVPQLMFACQNDIIAPVSGHADRFWTSFNTTLPRVFAESKGQDHFCPTNLTSAAEKAAFGRIAIAWYKIYLDGDTQYKQVITNGNSPVFSRYLTGGL
B11: unnamed (protein)
chain: MMAAAGSGGTSGGVSGSTGSAGAAGGATGAAGGGASSTGGFVREDAPTEMSTRAAKGKYTVKSYTSGFSGTGKDFLAGTLYYPTDADPPFASVAVVPGFTALQNSIMDWGPFLASHGIVTMTIDTLTTSDPPAQRADELMGALKSIAGENTRDGSPIKGQLDTTRQCVSGWSMGGGGTLIAASMHPELKCAVSFAAWQPTGGAMNKVPALMFEGTTDPLAAGMSQGFYDQTPDSTPKMIFEVAGASHDVANSPHNSMGIIGEYGLSWFKVYLEGDMRYKQFLLLP
B12: unnamed (protein)
chain: MNRSILERFVVGTSALLFSISAYSFTPSPTPEPEPEPCQGVCDFTRGPNPTSSYLEASRGPYSVNTVDVSRSVSGFGGGTIHYPTNTTGKMGAIAIVPGFLAAESSIAWWGPRLASHGFVVITIATNSTFDQPASRESQLSRALDYVINQSNSSGSPIAGKVDSTRVGAMGWSMGGGGTLKIASGSRLSAAIPLAPWHTGSNDFDQIDTPTMIIACENDTTAPVGRHASPFYNRISNATDKAYLEINNGGHSCANGGGTNAGLLGKYGVSWMKRFIDKDTRYSQFLCGPNHASNSAISEYRDTCSY
B13: unnamed (protein)
chain: MFNIRKVAVAASVLLVSMAASAQYQKGPNPTASALERTGSFSTGSSSVSSLSASGFGGGNLYYPTASGTYGAIALCPGFTATSSSLAWLGPRLASHGFVVLIIDTNSTLDQPDSRGRQLKAATDYLVAQNSRTGSPIRGKVDTSRLAVGGHSMGGGGTLEAIRDNPSYKAGMPLAPWNTTKSFSRITVPTLIIGGSADTVAPDGSHSIPFYTSIPSSTAKIFMELRGGSHFFPQTSDPNVSRFAISWYKRWLDLDTRYSTFLNTRPSTTAVSDFRVSRTF
B14: unnamed (protein)
chain: MSLVSHRAATTRACSKPQTEISRSPRNRRGAFIACVSLALVSSFAHADVLLQENFDGTLGQFTSVGSVSVTTSGARMAGSFGGTDGAITSAAISTVGFTALSLSYTRTTTGLDSGEAGILEYSTNGTTYTSLGSTQSASGPVTVGLPAAAENQAGLRLRWRVNASSSSEYYTVDSIQLQGTGGTSCEPNCPPTGNPYQRGPAPTTSTLDATSGSFTVDSVTVSSTAANGYGGGTIYYPVNTTEGPFAAIAVIPGYLSPQSSIQQWGPRLASWGFVVITITTNSGSDQPSSRATQLVAALDQVVSYSNSTTHAIRGKVDPTRLGVAGWSMGGGGSLIALDRNPTKLKAGMMFAPWNSSTNFSGVNQPALIFACESDGTAPVSSHALPFYNSIPSSNDKAFAEVNNGSHSCANDPRNNSGRLGRYGVSWMKRFLDDDTRFTEFLCGAPHSSVISGTTTYSRYLSTCPY

Substrate in the data set: BHET
The settings on record: 120 h.
For B1, the plate clearing result is given as “not clears the plate”.

As for B2, the plate clearing entry is recorded as “clears the plate (z > 3 vs empty vector)”.

B3: the plate clearing result is “not clears the plate”.

For the protein B4, the plate clearing entry is reported as “not clears the plate”.

As for B5, the plate clearing result was “not clears the plate”.

With B6, the plate clearing result is given as “not clears the plate”.

With B7, the plate clearing entry is recorded as “not clears the plate”.

For the protein B8, the plate clearing entry was “not clears the plate”.

B9: the plate clearing entry was “clears the plate (z > 3 vs empty vector)”.

On to B10, for which the plate clearing entry is “not clears the plate”.

For the protein B11, the plate clearing result is on record as “not clears the plate”.

In the case of B12, the plate clearing result is “not clears the plate”.

On to B13, for which the plate clearing result is on record as “not clears the plate”.

As to B14, the plate clearing entry was “clears the plate (z > 3 vs empty vector)”.
